Assay results: the nanobody polyreactivity screen of Harvey et al. (2022)

Assay: yeast display, Sf9 membrane polyspecificity reagent, FACS + sequencing; frameworks hold sequencing errors
Summary of the method: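 In a synthetic yeast display library (Saccharomyces cerevisiae BJ5465), nanobody expression was induced with galactose for 36–48 hours. FACS gates were set low and high (top ~1%) using anti-HA fluorescence for expression and streptavidin fluorescence for binding of the Sf9 membrane reagent. Each polyreactivity label is drawn from the gate of origin.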

| Sequence | polyreactivity (PSR sort gate) |
| --- | --- |
| QVQLVESGGGLVQAGGSLRLSCAASGSIFRRYAKGWYRQAPGKERELVAAITNRGGTTYYADSVKGRFTISRDNAKNSVYLQMNSLKPEDTAVYYCNAYYRTKGGFRFGYWGQVTQVTVSS | high polyreactivity |
| QVQLVESGGGLVQAGGSLRLSCAASGSIFRRYAMGWYRQAPGKERELVAAISIGGGSTYYADSVKGRFTISRDNAKITVYLQMNSLKPEDTAVYYCNAYWKDDFEDGPGRRGMDYWGQGTQVTVSS | low polyreactivity |
| QVQLVESGGGLVQAGGSLRLSCAASGSIFRRYAMGWYRQAPGKERELVAAISWRGDSTYYADSVKGRFTISRDNAKNTVYLQMNSLKPEDTAVYYCNSLIGANPLCYAARYDYWGQGTQVTVSS | low polyreactivity |
| QVQLVESGGGLVQAGGSLRLSCAASGSIFRRYTMGWYRQAPGKEREFVAVISRDGGSTYYADSVKGRFTISRDNAKNTVYLQMNSLKPEDTAVYYCAARLVRRYDYDYWGQGTQVTVSS | high polyreactivity |
| QVQLVESGGGLVQAGGSLRLSCAASGSIFRSNDMGWYRKAPGKERELVARITSSVGSTYYADSVKGRFTISRDNAKNTVYLQMNSLKPEVTAVYYCAKRYYHYPYGYRDYDYWGQGTQVTVSS | low polyreactivity |
| QVQLVESGGGLVQAGGSLRLSCAASGSIFRSYAMGWYRQAPGKERELVAAISSSGGRTYYADSVKGRFTISRDNAKNTVYLQMNSLKPEDTAVYYCAAYGGGGYKYDYWGQGTQVTVSS | low polyreactivity |
| QVQLVESGGGLVQAGGSLRLSCAASGSIFRSYAMGWYRQAPGKERELVAGITRGGSTNYADSVKGRFTISRYNAKNTVYLQMNSLKPEDTAVYYCNADTVSLGHSLDDGDYWGQGTQVTVSS | low polyreactivity |
| QVQLVESGGGLVQAGGSLRLSCAASGSIFRTNAMGWYRQAPGKERELVAAISQRGGSTYYADSVKGRFTISRDNAKNTVYLQMNSLKPEDTAVYYCAAPYTQKRGYDYWGQGTLVTVSS | high polyreactivity |
| QVQLVESGGGLVQAGGSLRLSCAASGSIFRTNAMGWYRQAPGKERELVASISRRGGSTYYADSVKGRFTISRDNAKNTVYLQMNSLKPEDTAVYYCAAVGYYSNTLHPWWDMYYWGQGTQVTVSS | high polyreactivity |
| QVQLVESGGGLVQAGGSLRLSCAASGSIFRTNTMGWYRQAPGKERELVARINRGGRTYYADSVKGRFTISRDNAKNTVYLQMNSLKPEDTAVYYCAAAPFFPHWYGYDYWGQGTHVTVSS | high polyreactivity |
| QVQLVESGGGLVQAGGSLRLSCAASGSIFRTYVMGWYRQAPGKERELVAAITASGGRTYYADSVKGRFTISRDNAKNSVYLQMNSLKPEDTAVYYCAAVSRGRYADSFDHWGQGTQVTVSS | high polyreactivity |
| QVQLVESGGGLVQAGGSLRLSCAASGSIFRVNAMGWYRQAPGKERELVAAITSGGTTTYYADSVKGRFTISLDNAKNTVYLQMNSLKPEDTAVYYCSKYPYPIYHTDGDDWGQGTQVTVSS | low polyreactivity |
| QVQLVESGGGLVQAGGSLRLSCAASGSIFRVYAMGWYRQAPGKERELVARISRTGVSTYYADSVKGRFTISRDNAKNTVYLQMNSLKPEDTAVYYCAVLIPYSSRSYRSTWYGYWGQGTQVTVSS | high polyreactivity |
| QVQLVESGGGLVQAGGSLRLSCAASGSIFRVYAMGWYRRAPGKERELVATITWNGGSTYYADSVKGRFTISRDNAKNTVYLQMNSLKPEDTAVYYCAKPTSWRRVLPMDYWGQGTQVTVSS | low polyreactivity |
| QVQLVESGGGLVQAGGSLRLSCAASGSIFRWNAMGWNRQEPGKERELVAVINSSGGSTYYADSVKGRFTISRDNAKNTVYLQMNSLKPEDTAVYYCAKGYDTTLTYNYWGQGTQVTVSS | low polyreactivity |
| QVQLVESGGGLVQAGGSLRLSCAASGSIFRWNAMGWYRQAPGKERELVAAITYSGGTTYYADSVKGRFTISRDNAKNTVYLQMNSLKPEDTAVYYCAATYYDYYRLYHLGYWGQGTQVTVSS | high polyreactivity |
| QVQLVESGGGLVQAGGSLRLSCAASGSIFRWNSMGGYRQAPGKERELVASITSGGSTYYADSVKGRFTISRDNAKNTVYLQMNSLKPEDTAVYYCAAARYPGRKFDYWGQGTQVTVSS | high polyreactivity |
| QVQLVESGGGLVQAGGSLRLSCAASGSIFRWYAMGWYRQAPGKERELVAAITWSASRTYYADSVKGRFTISRDNAKNTVYLQMNSLKPEDTAVYYCAADHDGPYAGYDSWGQGTQVTVSS | low polyreactivity |
| QVQLVESGGGLVQAGGSLRLSCAASGSIFRYNTMGRYRQAPGKERELVATITRRGGSTYYADSVKGRFTISRDNAKNTVYLQMNSLKPEDTAVYYCNADNFGGPYNYWGQGTQVTVSS | low polyreactivity |
| QVQLVESGGGLVQAGGSLRLSCAASGSIFRYYAMGWYRQAPGKERELVAAIRVSTGSTSYADSVKGRFTISRDNAKKSVYLQMNSLIPAVTAVYYCNARSRLVIAYRQHNYWGQGTQVTVSS | high polyreactivity |
| QVQLVESGGGLVQAGGSLRLSCAASGSIFRYYAMGWYRQAPGKERELVAAISRRGSSTYYADSVKGRFTISRDNAKNTVYLQMNSLNPEDTAVYYCAAGDFKQYDYWGQGTQVTVSS | high polyreactivity |
